Here are results for one substance from publication PMC4382182, “Characterization of Phospho-(Tyrosine)-Mimetic Calmodulin Mutants” (PLoS ONE, 2015).

The experiment has as its target endothelial nitric oxide synthase (eNOS) (bovine recombinant baculovirus-expressed in Sf9 cells) (bovine) (UniProt P29473).

endothelial nitric oxide synthase (eNOS) (bovine recombinant baculovirus-expressed in Sf9 cells) (bovine), sequence (P29473 whole entry): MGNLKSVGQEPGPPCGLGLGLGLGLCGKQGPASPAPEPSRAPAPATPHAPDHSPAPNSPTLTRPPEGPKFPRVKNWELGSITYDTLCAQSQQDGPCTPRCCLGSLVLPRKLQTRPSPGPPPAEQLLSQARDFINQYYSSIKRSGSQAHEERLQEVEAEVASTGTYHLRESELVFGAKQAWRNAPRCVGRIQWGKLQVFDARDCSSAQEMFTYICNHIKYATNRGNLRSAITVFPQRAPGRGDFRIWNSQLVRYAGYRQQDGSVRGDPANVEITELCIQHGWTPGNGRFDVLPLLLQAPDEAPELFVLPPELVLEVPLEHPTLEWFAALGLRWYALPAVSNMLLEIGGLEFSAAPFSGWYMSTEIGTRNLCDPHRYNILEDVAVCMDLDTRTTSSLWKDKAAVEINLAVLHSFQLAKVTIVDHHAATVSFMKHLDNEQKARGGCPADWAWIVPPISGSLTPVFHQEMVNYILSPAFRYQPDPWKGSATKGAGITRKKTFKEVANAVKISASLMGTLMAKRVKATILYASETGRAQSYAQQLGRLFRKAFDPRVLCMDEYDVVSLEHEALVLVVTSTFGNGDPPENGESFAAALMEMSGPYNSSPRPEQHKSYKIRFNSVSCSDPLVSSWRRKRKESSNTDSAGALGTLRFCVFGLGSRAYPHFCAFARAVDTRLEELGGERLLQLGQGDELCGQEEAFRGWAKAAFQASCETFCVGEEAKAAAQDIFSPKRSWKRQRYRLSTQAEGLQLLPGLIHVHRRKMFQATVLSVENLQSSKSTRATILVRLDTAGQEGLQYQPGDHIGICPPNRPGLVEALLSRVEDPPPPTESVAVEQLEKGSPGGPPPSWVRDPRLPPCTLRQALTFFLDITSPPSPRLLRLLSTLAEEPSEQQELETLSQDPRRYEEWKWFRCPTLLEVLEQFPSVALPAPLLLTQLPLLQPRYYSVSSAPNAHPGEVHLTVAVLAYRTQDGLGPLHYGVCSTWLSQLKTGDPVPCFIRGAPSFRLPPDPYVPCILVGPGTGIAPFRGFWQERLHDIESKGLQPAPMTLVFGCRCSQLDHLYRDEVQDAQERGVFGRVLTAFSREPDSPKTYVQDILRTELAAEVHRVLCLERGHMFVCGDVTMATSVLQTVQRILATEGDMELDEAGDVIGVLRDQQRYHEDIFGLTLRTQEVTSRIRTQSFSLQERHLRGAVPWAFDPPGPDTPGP

In the case of “purified bovine brain phospho-(Y)-CaM (phosphorylated by c-Src and free of non-phosphorylated CaM) (from UniProt P62157 1-149) (natural protein)”, the increase of eNOS activity by phospho-(Y)-CaM over that by non-phosphorylated CaM, at increasing concentrations of CaM stood at 30%.
